# Reference: publication PMC6336799, “Novel non-phosphorylative pathway of pentose metabolism from bacteria” (Scientific Reports, 2019)
# B1: C785_RS13685 (D-arabinonate dehydratase) (Herbaspirillum huttiense subsp. lycopersici) (protein)
# chain: MKANSPIIRLNPVDDVVIARQQLISGTVLQDEGGLKVQGLIPAGHKMATRAISAGEPVKRYGQIIGTASQDIAPGQHVHTHNLAMAEFSREHHFGADVKPVDFVAEPATFMGIVRPDGRVATRNYIGVLTSVNCSATAARAIADYFRRDIHPEVLADYPNIDGVVALTHGQGCATDSQGEPLQILRRTLAGYATHPNFAAVLVVGLGCETNQISGLMESHNLKEGEYFHTFTIQGTGGTAKTVALGIEKIKKMLPKANDIKREPVSAKHLTLGLQCGGSDGYSGITANPALGAAVDLLVRHGGTAILSETPEIYGAEHLLTRRAVSPEVGEKLLARIAWWEEYCAKNDAEMNNNPSAGNKAGGLTTILEKSLGAVAKGGTTNLVDVYKYAETVTARGFVFMDTPGYDPISATGQVAGGANMICFTTGRGSAYGCAPAPSLKLATNTALWQRQEEDMDINCGEIADSNVTPQEVGERFFQMILDTASGKKTKSELHGYGQDEFVPWHIGVYT
# notes: full length, N-terminal (His)6-tag (pQE-80L), expressed in E. coli DH5alpha, Ni-NTA; iron protein stored with Fe2+ and DTT
# B2: C785_RS13675 (D-KDP/L-KDF 4-dehydrogenase) (Herbaspirillum huttiense subsp. putei IAM 15032) (protein)
# chain: MSASTGRLAGKTVLITAAAQGIGRASTELFAREGARVIATDISKTHLEELASIAGVETHLLDVTDDDAIKALVAKVGTVDVLFNCAGYVAAGNILECDDKAWDFSFNLNAKAMFHTIRAVLPGMLAKKAGSIVNIASAASSVKGVANRFAYGASKAAVVGLTKSVAADFVSQGIRCNAICPGTIESPSLNQRISTQAKETGKSEDEVRAAFVARQPMGRIGKAEEVAALALYLASDESNFTTGSIHMIDGGWSN
# notes: full length, N-terminal (His)6-tag (pQE-80L), expressed in E. coli DH5alpha, Ni-NTA
# B3: C785_RS13710 (KDP dehydratase) (Herbaspirillum huttiense subsp. lycopersici) (protein)
# chain: MRLIQYRDLHGQRRVGIVNGASIQVLGEVDTMRELGLLAIERHTGLERLAQLLNTDRSEDYAAILAEGRILAPLDHPDPAHCRVSGAGTTHLGSATTRDKMHRRIEGDELDKTDTQLMIEWGIAGGRPAPGTVGVQPEWFYKGDGHCIVAPGQPLPRPDFALDGGEEPEIVGLYLIDDAGCPRRLGFAIGNEFSDHVMERRNYLYQGHSKLRHCAFGPELLVGLPPAHLVGMTRIRRRGRVIWEQEFLTGPDNMCHSIENLEYHTFKYAHLLHAGDVHAHFMGAANLSFAYSVRTEDGDSIEISIPDFGAPLVNGIQHVQSNLRPGGVRQL
# notes: full length, N-terminal (His)6-tag, expressed in Pseudomonas putida KT2442-oxyR1 (pUCP/C785_RS13710), Ni-NTA
# Columns and labels:
# Assay type in all cases: biochemical, Herbaspirillum huttiense
# purified protein [1] = substrate: O=C(O)[C@@H](O)[C@H](O)[C@H](O)[C@H](O)CO; test: purified protein; details: 50 mM HEPES-NaOH pH 7.2, 1.5 mM NAD+ for coupling enzyme
# purified protein [2] = substrate: O=C(O)[C@@H](O)[C@H](O)[C@H](O)CO; test: purified protein; details: 50 mM HEPES-NaOH pH 7.2, 1.5 mM NAD+ for coupling enzyme
# [3] = substrate: C[C@H](O)[C@@H](O)CC(=O)C(=O)O; test: spectrophotometric NADH formation; details: NAD+ as coenzyme, 50 mM Tris-HCl pH 9.0
# [4] = substrate: O=C(O)C(=O)C[C@H](O)CO; test: spectrophotometric NADH formation; details: NAD+ as coenzyme, 50 mM Tris-HCl pH 9.0
# [5] = substrate: O=C(O)C(=O)C[C@@H](O)CO; test: coupled spectrophotometric assay (alpha-KGSA dehydrogenase); details: 50 mM HEPES-NaOH pH 7.2, 1.5 mM NAD+ for coupling enzyme, 1 mM MgCl2 if necessary
# [6] = substrate: O=C(O)C(=O)C[C@H](O)CO; test: as above; details: 50 mM HEPES-NaOH pH 7.2, 1.5 mM NAD+ for coupling enzyme, 1 mM MgCl2 if necessary
protein,measurement,setting,value
B1,Km,purified protein [1],5.91 ± 0.09 mM
same,kcat,purified protein [1],2.36 ± 0.03 min⁻¹
same,Km,purified protein [2],0.202 ± 0.003 mM
same,kcat,purified protein [2],542 ± 4 min⁻¹
B2,Km,[3],0.169 ± 0.003 mM
same,kcat,[3],1930 ± 29 min⁻¹
same,Km,[4],1.12 ± 0.21 mM
same,kcat,[4],1630 ± 220 min⁻¹
B3,Km,[5],0.533 ± 0.160 mM
same,kcat,[5],12.1 ± 2.1 min⁻¹
same,Km,[6],1.91 ± 0.20 mM
same,kcat,[6],10.8 ± 0.3 min⁻¹
